The target of data set [1] is T1, H1-NTD (hybrid binding domain) (UniProt O60930 27-73).
T1 chain: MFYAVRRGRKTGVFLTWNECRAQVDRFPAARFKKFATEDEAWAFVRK
Kind of data set: thermal shift.

Data set [2] concerns the target T2, P54nrb (UniProt Q15233 1-471).
T2 sequence: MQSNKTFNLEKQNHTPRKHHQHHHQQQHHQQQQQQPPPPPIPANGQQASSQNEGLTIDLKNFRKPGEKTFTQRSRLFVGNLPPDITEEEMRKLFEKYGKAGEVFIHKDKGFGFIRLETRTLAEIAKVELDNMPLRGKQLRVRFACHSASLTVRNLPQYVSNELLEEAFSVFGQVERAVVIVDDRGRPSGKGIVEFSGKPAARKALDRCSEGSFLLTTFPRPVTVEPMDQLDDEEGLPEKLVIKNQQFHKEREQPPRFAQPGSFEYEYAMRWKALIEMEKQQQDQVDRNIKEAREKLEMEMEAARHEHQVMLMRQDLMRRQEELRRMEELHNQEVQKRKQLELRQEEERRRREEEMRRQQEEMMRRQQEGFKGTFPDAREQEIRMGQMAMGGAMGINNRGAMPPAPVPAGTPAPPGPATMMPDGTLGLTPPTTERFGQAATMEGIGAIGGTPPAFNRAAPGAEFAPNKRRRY
Kind of data set: thermal shift.

Regarding GCTAGCCTCTGGATTT (XNA, PS; 3-10-3 2'-F gapmer) [760614 3-10-3 F PS-ASO], in data set [1], the binding result is recorded as “binds”.

Turning to CTGCTAGCCTCTGGATTTGA (XNA, PS; 5-10-5 2'-F gapmer) [404130 5-10-5 F PS-ASO], the binding result in data set [2] is listed as “binds”.

(Values after PMC7969025.)
